From patent US20260139049A1 (PEDIATRIC IMMUNITY AND HEALTHCARE GUANGZHOU BIOTECHNOLOGY, published 2026)

Assays:
human CLDN6 [1] = target: T1, human CLDN6 (human, UniProt P56747 1-220); assay: FACS on PA-1 tumour cells; target on the cells taken as CLDN6
T1 construct: whole, on cells; four-transmembrane protein; also called claudin-6; HEK293T-CLDN6
T1 sequence (looked up): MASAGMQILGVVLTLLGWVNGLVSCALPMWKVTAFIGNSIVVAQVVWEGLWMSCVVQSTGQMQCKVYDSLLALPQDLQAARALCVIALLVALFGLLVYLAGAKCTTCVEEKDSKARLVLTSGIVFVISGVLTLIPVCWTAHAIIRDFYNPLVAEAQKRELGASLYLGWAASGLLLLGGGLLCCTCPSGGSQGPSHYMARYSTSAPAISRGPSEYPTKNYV
Procedure: (§1) 50 μL of an antibody to be tested was added to a 96-well plate, then 1×10⁵ cells were added to each well, and incubation was conducted at 4° C. for 1 h. Cells were washed three times with PBS. […] Finally, cells were washed three times with PBS, and signals were read using FACS. A binding capacity of the antibody to each tumor cell was analyzed based on detection data.

human CLDN6 [2] = target: T1, human CLDN6; assay: FACS on HepG2 tumour cells; target on the cells taken as CLDN6
Procedure: as §1

human CLDN6 [3] = target: T1, human CLDN6; assay: FACS on 293T-CLDN6 cells, 10 µg/mL
human CLDN6 [4] = target: T1, human CLDN6; assay: FACS on HepG2 tumour cells; target on the cells taken as CLDN6; remark: listed apart in the source
Procedure: as §1

human CLDN3 = target: T2, human CLDN3 (human, UniProt O15551 1-220); assay: FACS on 293T-CLDN3 cells, 10 µg/mL
T2 construct: whole, on cells; also called HEK293T-CLDN3
T2 sequence (looked up): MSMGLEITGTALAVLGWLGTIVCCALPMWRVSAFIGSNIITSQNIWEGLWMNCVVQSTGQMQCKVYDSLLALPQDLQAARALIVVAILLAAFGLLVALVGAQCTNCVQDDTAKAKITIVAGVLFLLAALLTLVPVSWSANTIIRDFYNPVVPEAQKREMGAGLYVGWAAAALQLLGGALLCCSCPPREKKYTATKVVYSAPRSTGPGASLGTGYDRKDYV
Procedure: as §1, with “1× 10⁵” for “1×10⁵”, “Binding capacities” for “A binding capacity”, “CLDN9, CLDN3, and CLDN4 were” for “each tumor cell was”, “analyzed separately” for “analyzed”

[5] = target: T3, monkey CLDN6 (Cyno CLDN6) (monkey (Cyno)); assay: FACS on CHO-K1-Cyno CLDN6 cells
T3 construct: whole, on cells; also called CHO-K1-Cyno CLDN6

human CLDN9 = target: T4, human CLDN9 (human, UniProt O95484 1-217); assay: FACS on 293T-CLDN9 cells, 10 µg/mL
T4 construct: whole, on cells; also called HEK293T-CLDN9
T4 sequence (looked up): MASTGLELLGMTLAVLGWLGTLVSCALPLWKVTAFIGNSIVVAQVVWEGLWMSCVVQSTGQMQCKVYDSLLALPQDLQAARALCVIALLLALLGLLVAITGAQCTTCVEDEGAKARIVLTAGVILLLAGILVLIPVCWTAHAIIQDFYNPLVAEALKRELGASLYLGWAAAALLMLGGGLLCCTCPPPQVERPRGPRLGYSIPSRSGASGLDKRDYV
Procedure: as §1, with “1× 10⁵” for “1×10⁵”, “Binding capacities” for “A binding capacity”, “CLDN9, CLDN3, and CLDN4 were” for “each tumor cell was”, “analyzed separately” for “analyzed”

B1: IMAB027 (antibody, human IgG1, kappa, V domains shown)
VH: EVQLQQSGPELVKPGASMKISCKASGYSFTGYTMNWVKQSHGKNLEWIGLINPYNGGTIYNQKFKGKATLTVDKSSSTAYMELLSLTSEDSAVYYCARDYGFVLDYWGQGTTLTVSS
VL: IVLTQSPAIMSASPGEKVTITCSASSSVSYLHWFQQKPGTSPKLWVYSTSNLPSGVPARFGGSGSGTSYSLTISRMEAEDAATYYCQQRSIYPPWTFGGGTKLEIKR
notes: variable regions of mAb206-LCC on human IgG1 constant regions; also called benchmark antibody; control antibody
EC50 (human CLDN6 [1]): 0.223 µg/mL | EC50 (human CLDN6 [2]): 0.515 µg/mL | Geom.Mean (human CLDN6 [3]): 44300 | EC50 (human CLDN6 [4]): 0.583 µg/mL | Geom.Mean (human CLDN3): 151 | EC50 [5]: 0.131 µg/mL | Geom.Mean (human CLDN9): 985
